Data: patent US20150147336A1

Experiments:
[1] = biological target: IFNα2a (human) (UniProt P01563); assay: cell-based or functional assay
[2] = biological target: human leukocyte IFN; assay: cell-based or functional assay

R347 (antibody) was tested, and the HERC5 gene expression (TAQMAN, Average) in whole blood of donor 107 with 100 IU IFNα2a + R347 control Ab; same donor VEH 1.00, IFN alone 41.12 (relative expression (Average)) [1] was 55, the HERC5 gene expression (TAQMAN, Average) in whole blood of donor 163 with 100 IU IFNα2a + R347 control Ab; same donor VEH 1.05, IFN alone 75.81 (relative expression (Average)) [1] was 95.4 and the HERC5 gene expression (TAQMAN, Average) in whole blood of donor 175 with 100 IU IFNα2a + R347 control Ab; same donor VEH 1.19, IFN alone 74.58 (relative expression (Average)) [1] was 98.2. It also gave an IFN α2a-induced IFIT1 gene expression in whole blood (TAQMAN), sample 107 IFN + R347 (107 IFN 80.21; 107 VEH 1.00) (relative expression (Average)) [1] of 86.4, an IFN α2a-induced IFIT1 gene expression in whole blood (TAQMAN), sample 163 IFN + R3437 (163 IFN 51.65; 163 VEH 0.92) (relative expression (Average)) [1] of 86.6 and an IFN α2a-induced IFIT3 gene expression in whole blood (TAQMAN), sample 107 IFN + R347 (107 IFN 38.43; 107 VEH 1.00) (relative expression (Average)) [1] of 42.6. The IFN α2a-induced IFIT3 gene expression in whole blood (TAQMAN), sample 163 IFN + R3437 (163 IFN 25.94; 163 VEH 0.62) (relative expression (Average)) [1] was 44.8, the IFN α2a-induced IFIT3 gene expression in whole blood (TAQMAN), sample 175 IFN + R347 (175 IFN 35.02; 175 VEH 1.32) (relative expression (Average)) [1] was 29.7 and the IFN α2a-induced IL6ST gene expression in whole blood (TAQMAN), sample 107 IFN + R347 (107 IFN 3.54; 107 VEH 1.00) (relative expression (Average)) [1] was 8.19. It also gave an IFN α2a-induced IL6ST gene expression in whole blood (TAQMAN), sample 163 IFN + R3437 (163 IFN 7.69; 163 VEH 2.50) (relative expression (Average)) [1] of 13.2, an IFN α2a-induced IL6ST gene expression in whole blood (TAQMAN), sample 175 IFN + R347 (175 IFN 7.62; 175 VEH 1.37) (relative expression (Average)) [1] of 23.9 and an IFN α2a-induced IRF7 gene expression in whole blood (TAQMAN), sample 107 IFN + R347 (107 IFN 18.53; 107 VEH 1.00) (relative expression (Average)) [1] of 19.5. It also gave an IFN α2a-induced IRF7 gene expression in whole blood (TAQMAN), sample 163 IFN + R3437 (163 IFN 17.16; 163 VEH 0.91) (relative expression (Average)) [1] of 23.3, an IFN α2a-induced IRF7 gene expression in whole blood (TAQMAN), sample 175 IFN + R347 (175 IFN 24.65; 175 VEH 1.25) (relative expression (Average)) [1] of 26.3 and an IFN α2a-induced LY6E gene expression in whole blood (TAQMAN), sample 107 IFN + R347 (107 IFN 19.09; 107 VEH 1.00) (relative expression (Average)) [1] of 12.5. For the same substance, the IFN α2a-induced LY6E gene expression in whole blood (TAQMAN), sample 163 IFN + R3437 (163 IFN 13.52; 163 VEH 1.02) (relative expression (Average)) [1] was 22.6, the IFN α2a-induced LY6E gene expression in whole blood (TAQMAN), sample 175 IFN + R347 (175 IFN 19.32; 175 VEH 1.61) (relative expression (Average)) [1] was 15.6 and the IFN α2a-induced MARCKS gene expression in whole blood (TAQMAN), sample 107 IFN + R347 (107 FN 3.97; 107 VEH 1.00) (relative expression (Average)) [1] was 2.99. It also gave an IFN α2a-induced MARCKS gene expression in whole blood (TAQMAN), sample 163 IFN + R3437 (163 IFN 2.59; 163 VEH 0.56) (relative expression (Average)) [1] of 4.42, an IFN α2a-induced MARCKS gene expression in whole blood (TAQMAN), sample 175 IFN + R347 (175 IFN 2.59; 175 VEH 0.41) (relative expression (Average)) [1] of 3.38 and an IFN α2a-induced RAB8B gene expression in whole blood (TAQMAN), sample 107 IFN + R347 (107 IFN 3.45; 107 VEH 1.0) (relative expression (Average)) [1] of 3.15. It also gave an IFN α2a-induced RAB8B gene expression in whole blood (TAQMAN), sample 163 IFN + R3437 (163 IFN 2.20; 163 VEH 0.70) (relative expression (Average)) [1] of 3.71, an IFN α2a-induced RAB8B gene expression in whole blood (TAQMAN), sample 175 IFN + R347 (175 IFN 2.63; 175 VEH 0.64) (relative expression (Average)) [1] of 2.51 and an OAS1 gene expression (TAQMAN, Average) in whole blood of donor 107 with 100 IU IFNα2a + R347 control Ab; same donor VEH 1.00, IFN alone 15.11 (relative expression (Average)) [1] of 17.8. For the same substance, the OAS1 gene expression (TAQMAN, Average) in whole blood of donor 163 with 100 IU IFNα2a + R347 control Ab; same donor VEH 0.77, IFN alone 14.19 (relative expression (Average)) [1] was 22.4, the OAS1 gene expression (TAQMAN, Average) in whole blood of donor 175 with 100 IU IFNα2a + R347 control Ab; same donor VEH 1.62, IFN alone 22.09 (relative expression (Average)) [1] was 15.2 and the OAS3 gene expression (TAQMAN, Average) in whole blood of donor 107 with 100 IU IFNα2a + R347 control Ab; same donor VEH 1.00, IFN alone 49.04 (relative expression (Average)) [1] was 76.9. For the same substance, the OAS3 gene expression (TAQMAN, Average) in whole blood of donor 163 with 100 IU IFNα2a + R347 control Ab; same donor VEH 0.49, IFN alone 42.01 (relative expression (Average)) [1] was 52.6, the OAS3 gene expression (TAQMAN, Average) in whole blood of donor 175 with 100 IU IFNα2a + R347 control Ab; same donor VEH 1.27, IFN alone 37.87 (relative expression (Average)) [1] was 34.9 and the RSAD2 gene expression (TAQMAN, Average) in whole blood of donor 107 with 100 IU IFNα2a + R347 control Ab; same donor VEH 1.00, IFN alone 109.64 (relative expression (Average)) [1] was 107. For the same substance, the RSAD2 gene expression (TAQMAN, Average) in whole blood of donor 163 with 100 IU IFNα2a + R347 control Ab; same donor VEH 0.56, IFN alone 71.47 (relative expression (Average)) [1] was 115 and the RSAD2 gene expression (TAQMAN, Average) in whole blood of donor 175 with 100 IU IFNα2a + R347 control Ab; same donor VEH 1.88, IFN alone 126.27 (relative expression (Average)) [1] was 91.
For MEDI-545 (antibody), the HERC5 gene expression (TAQMAN, Average) in whole blood of donor 107 with 100 IU IFNα2a + MEDI-545; same donor VEH 1.00, IFN alone 41.12 (relative expression (Average)) [1] was 6.29, the HERC5 gene expression (TAQMAN, Average) in whole blood of donor 163 with 100 IU IFNα2a + MEDI-545; same donor VEH 1.05, IFN alone 75.81 (relative expression (Average)) [1] was 7.83 and the HERC5 gene expression (TAQMAN, Average) in whole blood of donor 175 with 100 IU IFNα2a + MEDI-545; same donor VEH 1.19, IFN alone 74.58 (relative expression (Average)) [1] was 6.89. It also gave an IFN α2a-induced IFIT1 gene expression in whole blood (TAQMAN), sample 107 IFN + 545 (107 IFN 80.21; 107 VEH 1.00) (relative expression (Average)) [1] of 13.1, an IFN α2a-induced IFIT1 gene expression in whole blood (TAQMAN), sample 163 IFN + 545 (163 IFN 51.65; 163 VEH 0.92) (relative expression (Average)) [1] of 7.6 and an IFN α2a-induced IFIT1 gene expression in whole blood (TAQMAN), sample 175 IFN + 545 (175 IFN 82.98; 175 VEH 1.47) (relative expression (Average)) [1] of 8.4. The IFN α2a-induced IFIT3 gene expression in whole blood (TAQMAN), sample 107 IFN + 545 (107 IFN 38.43; 107 VEH 1.00) (relative expression (Average)) [1] was 6.78, the IFN α2a-induced IFIT3 gene expression in whole blood (TAQMAN), sample 163 IFN + 545 (163 IFN 25.94; 163 VEH 0.62) (relative expression (Average)) [1] was 4.58 and the IFN α2a-induced IFIT3 gene expression in whole blood (TAQMAN), sample 175 IFN + 545 (175 IFN 35.02; 175 VEH 1.32) (relative expression (Average)) [1] was 5.28. The IFN α2a-induced IL6ST gene expression in whole blood (TAQMAN), sample 107 IFN + 545 (107 IFN 3.54; 107 VEH 1.00) (relative expression (Average)) [1] was 2.62, the IFN α2a-induced IL6ST gene expression in whole blood (TAQMAN), sample 163 IFN + 545 (163 IFN 7.69; 163 VEH 2.50) (relative expression (Average)) [1] was 4.18 and the IFN α2a-induced IL6ST gene expression in whole blood (TAQMAN), sample 175 IFN + 545 (175 IFN 7.62; 175 VEH 1.37) (relative expression (Average)) [1] was 2.95. It also gave an IFN α2a-induced IRF7 gene expression in whole blood (TAQMAN), sample 107 IFN + 545 (107 IFN 18.53; 107 VEH 1.00) (relative expression (Average)) [1] of 3.42, an IFN α2a-induced IRF7 gene expression in whole blood (TAQMAN), sample 163 IFN + 545 (163 IFN 17.16; 163 VEH 0.91) (relative expression (Average)) [1] of 2.92 and an IFN α2a-induced IRF7 gene expression in whole blood (TAQMAN), sample 175 IFN + 545 (175 IFN 24.65; 175 VEH 1.25) (relative expression (Average)) [1] of 2.43. The IFN α2a-induced LY6E gene expression in whole blood (TAQMAN), sample 107 IFN + 545 (107 IFN 19.09; 107 VEH 1.00) (relative expression (Average)) [1] was 3.5, the IFN α2a-induced LY6E gene expression in whole blood (TAQMAN), sample 163 IFN + 545 (163 IFN 13.52; 163 VEH 1.02) (relative expression (Average)) [1] was 4.8 and the IFN α2a-induced LY6E gene expression in whole blood (TAQMAN), sample 175 IFN + 545 (175 IFN 19.32; 175 VEH 1.61) (relative expression (Average)) [1] was 3.74. It also gave an IFN α2a-induced MARCKS gene expression in whole blood (TAQMAN), sample 163 IFN + 545 (163 IFN 2.59; 163 VEH 0.56) (relative expression (Average)) [1] of 1.55, an IFN α2a-induced MARCKS gene expression in whole blood (TAQMAN), sample 175 IFN + 545 (175 IFN 2.59; 175 VEH 0.41) (relative expression (Average)) [1] of 0.55 and an IFN α2a-induced RAB8B gene expression in whole blood (TAQMAN), sample 163 IFN + 545 (163 IFN 2.20; 163 VEH 0.70) (relative expression (Average)) [1] of 1.18. For the same substance, the IFN α2a-induced RAB8B gene expression in whole blood (TAQMAN), sample 175 IFN + 545 (175 IFN 2.63; 175 VEH 0.64) (relative expression (Average)) [1] was 1.15, the OAS1 gene expression (TAQMAN, Average) in whole blood of donor 107 with 100 IU IFNα2a + MEDI-545; same donor VEH 1.00, IFN alone 15.11 (relative expression (Average)) [1] was 3.45 and the OAS1 gene expression (TAQMAN, Average) in whole blood of donor 163 with 100 IU IFNα2a + MEDI-545; same donor VEH 0.77, IFN alone 14.19 (relative expression (Average)) [1] was 3.05. It also gave an OAS1 gene expression (TAQMAN, Average) in whole blood of donor 175 with 100 IU IFNα2a + MEDI-545; same donor VEH 1.62, IFN alone 22.09 (relative expression (Average)) [1] of 4.04, an OAS3 gene expression (TAQMAN, Average) in whole blood of donor 107 with 100 IU IFNα2a + MEDI-545; same donor VEH 1.00, IFN alone 49.04 (relative expression (Average)) [1] of 7.03 and an OAS3 gene expression (TAQMAN, Average) in whole blood of donor 163 with 100 IU IFNα2a + MEDI-545; same donor VEH 0.49, IFN alone 42.01 (relative expression (Average)) [1] of 14.6. It also gave an OAS3 gene expression (TAQMAN, Average) in whole blood of donor 175 with 100 IU IFNα2a + MEDI-545; same donor VEH 1.27, IFN alone 37.87 (relative expression (Average)) [1] of 3.92, an RSAD2 gene expression (TAQMAN, Average) in whole blood of donor 107 with 100 IU IFNα2a + MEDI-545; same donor VEH 1.00, IFN alone 109.64 (relative expression (Average)) [1] of 9.88 and an RSAD2 gene expression (TAQMAN, Average) in whole blood of donor 163 with 100 IU IFNα2a + MEDI-545; same donor VEH 0.56, IFN alone 71.47 (relative expression (Average)) [1] of 4.39. The RSAD2 gene expression (TAQMAN, Average) in whole blood of donor 175 with 100 IU IFNα2a + MEDI-545; same donor VEH 1.88, IFN alone 126.27 (relative expression (Average)) [1] was 8.43 and the neutralization of overexpression of ISG15, USP18 and IFIT2 in keratinocytes stimulated with 150 I.U./mL leukocyte IFN [2] was 70 to 100%.
